Publication PMC10219652, “Insights into cargo sorting by SNX32 and its role in neurite outgrowth” (eLife, 2023)
Residue numbers refer to the chain shown, from its start. Names and notes keep the numbering of the source.

Legend:
GFP-SNX4 [1] = biological target: GFP-SNX4 (UniProt O95219); assay: co-IP; GBP-IP as above with lysates of HeLa cells transiently transfected with wild-type or mutant GFP-SNX4 and HA-SNX32 (legend of Figure 1H); values are the ratio of HA to GFP band intensity
GFP-SNX32 = biological target: T1, GFP-SNX32 (UniProt Q86XE0-1 1-403); assay: co-IP; GFP nanobody-based immunoprecipitation (GBP-IP): GST-GBP on glutathione sepharose beads incubated 2 hr at 4°C with extracts of HEK293T cells overexpressing GFP- and HA-tagged SNX proteins; washed with 1x PBS; immunoblot with anti-HA and anti-GFP; values are the ratio of HA to GFP band intensity; settings: partners not purified
T1 construct: Sorting nexin 32 (SNX32, SNX6b); pEGFP C1 SNX32 FL, gift of P. J. Cullen; also called GFP-SNX32 WT; pEGFP C1 SNX32 FL; source: HEK293T or HeLa, transiently transfected, in lysate
T1 sequence (looked up): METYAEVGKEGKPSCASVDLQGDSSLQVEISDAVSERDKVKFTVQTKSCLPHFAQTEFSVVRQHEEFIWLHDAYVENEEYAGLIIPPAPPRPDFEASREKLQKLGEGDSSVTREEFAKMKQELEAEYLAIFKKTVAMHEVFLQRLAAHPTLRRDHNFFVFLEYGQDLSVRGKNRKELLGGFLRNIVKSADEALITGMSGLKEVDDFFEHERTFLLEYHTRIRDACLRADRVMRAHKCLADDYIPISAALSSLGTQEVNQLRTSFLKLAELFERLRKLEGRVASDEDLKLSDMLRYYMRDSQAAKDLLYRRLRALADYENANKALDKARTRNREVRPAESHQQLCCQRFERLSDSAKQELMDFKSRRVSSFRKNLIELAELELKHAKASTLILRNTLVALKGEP

GFP-SNX1 = biological target: T2, GFP-SNX1 (UniProt Q13596-1 1-522); assay: as above; settings: partners not purified
T2 construct: Sorting nexin 1 (SNX1); pEGFP C1 SNX1, gift of P. J. Cullen; also called GFP-SNX1 WT; pEGFP C1 SNX1

GFP-SNX8 = biological target: T3, GFP-SNX8 (UniProt Q9Y5X2 1-465); assay: as above; settings: partners not purified
T3 construct: Sorting nexin 8 (SNX8); the plasmid is not described in the methods; source: HEK293T, transiently transfected, in lysate
T3 sequence (looked up): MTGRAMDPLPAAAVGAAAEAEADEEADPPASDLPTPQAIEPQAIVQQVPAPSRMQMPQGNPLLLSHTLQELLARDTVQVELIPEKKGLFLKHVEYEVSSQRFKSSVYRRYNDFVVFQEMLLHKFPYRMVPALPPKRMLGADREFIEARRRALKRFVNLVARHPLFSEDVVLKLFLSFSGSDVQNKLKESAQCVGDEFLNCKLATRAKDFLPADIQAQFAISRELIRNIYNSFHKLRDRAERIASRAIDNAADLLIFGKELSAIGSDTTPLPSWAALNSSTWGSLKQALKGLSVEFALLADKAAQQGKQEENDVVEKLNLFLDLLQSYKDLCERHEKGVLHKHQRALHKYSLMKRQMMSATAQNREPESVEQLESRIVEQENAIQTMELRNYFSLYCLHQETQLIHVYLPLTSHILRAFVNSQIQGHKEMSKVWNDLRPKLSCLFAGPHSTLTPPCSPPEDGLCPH

GFP-SNX4, O95219 = biological target: T4, GFP-SNX4, O95219; assay: as above; settings: remark: other sources report otherwise
T4 chain: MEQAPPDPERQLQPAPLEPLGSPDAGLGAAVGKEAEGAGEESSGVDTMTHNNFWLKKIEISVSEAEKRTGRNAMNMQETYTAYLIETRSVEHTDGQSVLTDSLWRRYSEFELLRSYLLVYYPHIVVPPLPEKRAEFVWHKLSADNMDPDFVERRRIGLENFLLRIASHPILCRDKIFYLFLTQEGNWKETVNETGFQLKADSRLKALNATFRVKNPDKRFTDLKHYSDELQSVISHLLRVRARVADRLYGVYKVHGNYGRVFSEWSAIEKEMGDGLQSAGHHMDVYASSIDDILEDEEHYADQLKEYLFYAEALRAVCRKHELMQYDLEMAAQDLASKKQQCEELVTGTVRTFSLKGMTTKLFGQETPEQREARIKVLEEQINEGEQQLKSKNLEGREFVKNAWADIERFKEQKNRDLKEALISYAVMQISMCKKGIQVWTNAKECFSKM

GFP-SNX4 [2] = biological target: T5, GFP-SNX4 (UniProt O95219-1 1-450); assay: co-IP; GBP-IP as above with lysates of HeLa cells transiently transfected with wild-type or mutant GFP-SNX4 and HA-SNX32 (legend of Figure 1H); values are the ratio of HA to GFP band intensity; settings: partners not purified
T5 construct: Sorting nexin 4 (SNX4); pEGFP C1 SNX4, gift of P. J. Cullen; also called GFP-SNX4 WT; pEGFP C1 SNX4; source: HEK293T or HeLa, transiently transfected, in lysate
T5 sequence (looked up): T4 chain

T2 sequence (Q13596 whole entry): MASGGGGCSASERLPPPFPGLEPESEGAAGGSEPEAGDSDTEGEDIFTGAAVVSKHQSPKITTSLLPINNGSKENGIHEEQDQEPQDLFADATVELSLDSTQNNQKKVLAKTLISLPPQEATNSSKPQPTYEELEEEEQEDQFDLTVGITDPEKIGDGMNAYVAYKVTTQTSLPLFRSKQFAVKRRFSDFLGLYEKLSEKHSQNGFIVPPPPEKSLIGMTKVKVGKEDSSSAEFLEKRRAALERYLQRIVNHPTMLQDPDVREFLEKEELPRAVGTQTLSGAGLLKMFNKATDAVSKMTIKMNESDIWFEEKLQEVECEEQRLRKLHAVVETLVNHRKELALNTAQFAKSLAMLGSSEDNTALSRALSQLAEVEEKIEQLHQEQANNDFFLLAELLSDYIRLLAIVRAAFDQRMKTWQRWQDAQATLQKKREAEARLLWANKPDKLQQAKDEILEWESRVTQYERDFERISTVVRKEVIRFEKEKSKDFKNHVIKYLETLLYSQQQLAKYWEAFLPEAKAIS

HA-SNX32 A226E (from UniProt Q86XE0-1 1-403) (natural protein)
ratio of HA to GFP band intensity (GFP-SNX4 [1]): 0.65

B1: HA-SNX32 full-length (FL) (natural protein, UniProt Q86XE0-1 1-403, looked up)
chain: T1 sequence (looked up)
notes: Sorting nexin 32 (SNX32, SNX6b); pcDNA3 HA N(I)-SNX32 FL subcloned from pEGFP C1-SNX32FL; also called HA-SNX32FL; HA-SNX32 WT; source: HEK293T or HeLa, transiently transfected, in lysate
ratio of HA to GFP band intensity (GFP-SNX32): 0.85 | ratio of HA to GFP band intensity (GFP-SNX1): 0.98 | ratio of HA to GFP band intensity (GFP-SNX8): 0.62 | ratio of HA to GFP band intensity (GFP-SNX4, O95219): 0.92

B2: HA-SNX32 R366E (natural protein, UniProt Q86XE0-1 1-403, looked up)
chain: T1 sequence (looked up) with R366E
notes: Sorting nexin 32 (SNX32) with a point mutation, made by site-directed mutagenesis of HA-tagged SNX32; also called pcDNA3 HA N(I)-SNX32 R366E; source: HeLa, transiently transfected, in lysate
ratio of HA to GFP band intensity (GFP-SNX4 [2]): 0.49

B3: HA-SNX32 R220E (natural protein, UniProt Q86XE0-1 1-403, looked up)
chain: T1 sequence (looked up) with R220E
notes: Sorting nexin 32 (SNX32) with a point mutation, made by site-directed mutagenesis of HA-tagged SNX32; also called pcDNA3 HA N(I)-SNX32 R220E; source: HeLa, transiently transfected, in lysate
ratio of HA to GFP band intensity (GFP-SNX4 [2]): 1.02

B4: HA-SNX32 Q259R (natural protein, UniProt Q86XE0-1 1-403, looked up)
chain: T1 sequence (looked up) with Q259R
notes: Sorting nexin 32 (SNX32) with a point mutation, made by site-directed mutagenesis of HA-tagged SNX32; also called pcDNA3 HA N(I)-SNX32 Q259R; source: HeLa, transiently transfected, in lysate
ratio of HA to GFP band intensity (GFP-SNX4 [2]): 0.75

B5: HA-SNX32 E256R (natural protein, UniProt Q86XE0-1 1-403, looked up)
chain: T1 sequence (looked up) with E256R
notes: Sorting nexin 32 (SNX32) with a point mutation, made by site-directed mutagenesis of HA-tagged SNX32; also called pcDNA3 HA N(I)-SNX32E256R; source: HeLa, transiently transfected, in lysate
ratio of HA to GFP band intensity (GFP-SNX4 [2]): 0.66
